Results reported in the supplement of paper PMC9112550, “Optimization of the antimicrobial peptide Bac7 by deep mutational scanning” (BMC Biology, 2022).

The sequences below were run on Escherichia coli TOP10 (assay: shrunken log2 fold change of peptide-encoding DNA abundance (4.5 h post-induction vs induction); higher = less antimicrobial activity (less host growth inhibition)). Details: time post-induction: 4.5 h; library: site-saturation at positions 5, 18, 19, 20.
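Further: peptides expressed intracellularly from a pBAD plasmid library in pooled LB shake-flask culture, induced with 0.3% L-arabinose, DNA abundance read by NGS, three biological replicates, DESeq2 with apeglm shrinkage.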

| Sequence | shrunken log2 fold change |
| --- | --- |
| RRIRLRPPRLPRPRPRPHIPPRP | -0.664 |
| RRIRLRPPRLPRPRPRPRMQPRP | -0.0604 |
| RRIRVRPPRLPRPRPRPAENPRP | 0.15 |
| RRIRSRPPRLPRPRPRPFTSPRP | 0.0532 |
| RRIRARPPRLPRPRPRPSMRPRP | 1.03 |
| RRIRMRPPRLPRPRPRPFMRPRP | 0.345 |
| RRIRKRPPRLPRPRPRPYRSPRP | 0.0428 |
| RRIRNRPPRLPRPRPRPVLGPRP | 0.00359 |
| RRIRDRPPRLPRPRPRPFTGPRP | -0.267 |
| RRIRYRPPRLPRPRPRPEGMPRP | 0.0329 |
| RRIRGRPPRLPRPRPRPHAGPRP | 1.06 |
| RRIRWRPPRLPRPRPRPWAMPRP | 0.0321 |
| RRIRIRPPRLPRPRPRPMWIPRP | -0.208 |
| RRIRKRPPRLPRPRPRPSCPPRP | -0.0238 |
| RRIRARPPRLPRPRPRPSVTPRP | 0.0595 |
| RRIRIRPPRLPRPRPRPYMSPRP | -1.19 |
| RRIRERPPRLPRPRPRPNAPPRP | 0.0774 |
| RRIRPRPPRLPRPRPRPAWGPRP | 0.503 |
| RRIRWRPPRLPRPRPRPDQYPRP | -0.154 |
| RRIRLRPPRLPRPRPRPQKKPRP | -0.176 |
| RRIRSRPPRLPRPRPRPNADPRP | 0.113 |
| RRIRHRPPRLPRPRPRPNCDPRP | -0.264 |
| RRIRRRPPRLPRPRPRPLNPPRP | -0.00196 |
| RRIRPRPPRLPRPRPRPVHVPRP | 0.18 |
| RRIRARPPRLPRPRPRPTCQPRP | 0.431 |

| Sequence | shrunken log2 fold change |
| --- | --- |
| RRIRWRPPRLPRPRPRPSPYPRP | -0.25 |
| RRIRPRPPRLPRPRPRPRVTPRP | 0.326 |
| RRIRSRPPRLPRPRPRPWEFPRP | 0.236 |
| RRIRYRPPRLPRPRPRPFTDPRP | -0.583 |
| RRIRDRPPRLPRPRPRPTVFPRP | 0.708 |
| RRIRPRPPRLPRPRPRPKYQPRP | -0.411 |
| RRIRFRPPRLPRPRPRPFTTPRP | -0.445 |
| RRIRQRPPRLPRPRPRPWNKPRP | -0.34 |
| RRIRSRPPRLPRPRPRPGENPRP | 0.894 |
| RRIRWRPPRLPRPRPRPKCPPRP | -0.00278 |
| RRIRYRPPRLPRPRPRPHDLPRP | -0.00151 |
| RRIRHRPPRLPRPRPRPNILPRP | -0.448 |
| RRIRMRPPRLPRPRPRPFEYPRP | -0.219 |
| RRIRQRPPRLPRPRPRPSRDPRP | -0.141 |
| RRIRCRPPRLPRPRPRPPMRPRP | 0.945 |
| RRIRIRPPRLPRPRPRPNPYPRP | -0.659 |
| RRIRDRPPRLPRPRPRPNNIPRP | -0.558 |
| RRIRFRPPRLPRPRPRPNRDPRP | -0.0824 |
| RRIRWRPPRLPRPRPRPVGFPRP | 0.558 |
| RRIRKRPPRLPRPRPRPMYRPRP | 0.0629 |
| RRIRDRPPRLPRPRPRPMMAPRP | -0.00174 |
| RRIRQRPPRLPRPRPRPLLFPRP | -0.0219 |
| RRIRARPPRLPRPRPRPAGNPRP | 0.129 |
| RRIRIRPPRLPRPRPRPDMYPRP | -0.173 |
| RRIRSRPPRLPRPRPRPWDIPRP | -0.211 |

| Sequence | shrunken log2 fold change |
| --- | --- |
| RRIRPRPPRLPRPRPRPMSYPRP | 0.296 |
| RRIRGRPPRLPRPRPRPICTPRP | 1.08 |
| RRIRARPPRLPRPRPRPKSVPRP | 0.0188 |
| RRIRKRPPRLPRPRPRPYIDPRP | -0.194 |
| RRIRFRPPRLPRPRPRPQDWPRP | -0.12 |
| RRIRSRPPRLPRPRPRPAMVPRP | -0.274 |
| RRIRPRPPRLPRPRPRPYFQPRP | -0.593 |
| RRIRTRPPRLPRPRPRPWLWPRP | 0.202 |
| RRIRARPPRLPRPRPRPPLWPRP | 1.17 |
| RRIRLRPPRLPRPRPRPRHCPRP | 0.232 |
| RRIRVRPPRLPRPRPRPDCNPRP | -0.497 |
| RRIRERPPRLPRPRPRPYLCPRP | -0.554 |
| RRIRSRPPRLPRPRPRPFTGPRP | -0.261 |
| RRIRERPPRLPRPRPRPNPVPRP | -0.424 |
| RRIRDRPPRLPRPRPRPCINPRP | 0.224 |
| RRIRERPPRLPRPRPRPYHFPRP | -0.177 |
| RRIRFRPPRLPRPRPRPGWSPRP | 0.114 |
| RRIRNRPPRLPRPRPRPISYPRP | -0.029 |
| RRIRSRPPRLPRPRPRPSQPPRP | -0.14 |
| RRIRLRPPRLPRPRPRPDGCPRP | -0.0283 |
| RRIRTRPPRLPRPRPRPWRNPRP | -0.253 |
| RRIRWRPPRLPRPRPRPDEHPRP | 0.0519 |
| RRIRLRPPRLPRPRPRPKFPPRP | -0.26 |
| RRIRTRPPRLPRPRPRPYPAPRP | -0.277 |
| RRIRARPPRLPRPRPRPKTNPRP | 0.436 |

| Sequence | shrunken log2 fold change |
| --- | --- |
| RRIRCRPPRLPRPRPRPFKLPRP | -0.62 |
| RRIRHRPPRLPRPRPRPCSVPRP | -0.00861 |
| RRIRPRPPRLPRPRPRPRRFPRP | 0.0399 |
| RRIRRRPPRLPRPRPRPFNHPRP | -0.275 |
| RRIRNRPPRLPRPRPRPALSPRP | 0.0962 |
| RRIRTRPPRLPRPRPRPCGRPRP | 0.155 |
| RRIRGRPPRLPRPRPRPFLKPRP | 0.186 |
| RRIRHRPPRLPRPRPRPYMNPRP | -1.04 |
| RRIRPRPPRLPRPRPRPVDAPRP | 0.173 |
| RRIRRRPPRLPRPRPRPVGPPRP | -0.0193 |
| RRIRWRPPRLPRPRPRPLLKPRP | -0.0261 |
| RRIRRRPPRLPRPRPRPQNGPRP | -0.0551 |
| RRIRIRPPRLPRPRPRPDARPRP | 0.262 |
| RRIRSRPPRLPRPRPRPPAFPRP | -0.00342 |
| RRIRRRPPRLPRPRPRPTKPPRP | 0.541 |
| RRIRGRPPRLPRPRPRPKGCPRP | 2.83 |
| RRIRWRPPRLPRPRPRPTGFPRP | 0.645 |
| RRIRARPPRLPRPRPRPVKTPRP | 0.232 |
| RRIRERPPRLPRPRPRPGFFPRP | -0.191 |
| RRIRFRPPRLPRPRPRPFMKPRP | 1.71 |
| RRIRGRPPRLPRPRPRPMWYPRP | 0.293 |
| RRIRCRPPRLPRPRPRPDARPRP | -0.0562 |
| RRIRKRPPRLPRPRPRPSSCPRP | 0.31 |
| RRIRVRPPRLPRPRPRPMDYPRP | -0.0122 |
| RRIRARPPRLPRPRPRPCYLPRP | -0.262 |

| Sequence | shrunken log2 fold change |
| --- | --- |
| RRIRRRPPRLPRPRPRPAEPPRP | 0.723 |
| RRIRSRPPRLPRPRPRPAHLPRP | 0.27 |
| RRIRPRPPRLPRPRPRPHTMPRP | -0.143 |
| RRIRNRPPRLPRPRPRPWGFPRP | -0.103 |
| RRIRPRPPRLPRPRPRPLKRPRP | -0.161 |
| RRIRSRPPRLPRPRPRPGCLPRP | 0.0602 |
| RRIRNRPPRLPRPRPRPLRHPRP | -0.0731 |
| RRIRNRPPRLPRPRPRPCASPRP | -0.106 |
| RRIRPRPPRLPRPRPRPSYPPRP | -0.181 |
| RRIRMRPPRLPRPRPRPVSAPRP | 0.617 |
| RRIRDRPPRLPRPRPRPCEMPRP | 0.63 |
| RRIRGRPPRLPRPRPRPPWLPRP | 0.849 |
| RRIRKRPPRLPRPRPRPKKKPRP | 0.0709 |
| RRIRMRPPRLPRPRPRPFRRPRP | -0.117 |
| RRIRCRPPRLPRPRPRPQEDPRP | -0.0835 |
| RRIRNRPPRLPRPRPRPDTDPRP | 0.0251 |
| RRIRGRPPRLPRPRPRPTWFPRP | 0.281 |
| RRIRKRPPRLPRPRPRPCASPRP | 0.0419 |
| RRIRTRPPRLPRPRPRPANGPRP | -0.213 |
| RRIRHRPPRLPRPRPRPVAFPRP | -0.187 |
| RRIRLRPPRLPRPRPRPIEHPRP | -0.31 |
| RRIRHRPPRLPRPRPRPSQPPRP | -0.184 |
| RRIRVRPPRLPRPRPRPHMVPRP | -0.53 |
| RRIRRRPPRLPRPRPRPWGVPRP | 0.405 |
| RRIRPRPPRLPRPRPRPQIQPRP | -0.286 |

| Sequence | shrunken log2 fold change |
| --- | --- |
| RRIRHRPPRLPRPRPRPMPLPRP | -0.0217 |
| RRIRHRPPRLPRPRPRPIKDPRP | -0.299 |
| RRIRERPPRLPRPRPRPGYMPRP | -0.172 |
| RRIRYRPPRLPRPRPRPFNMPRP | -0.202 |
| RRIRFRPPRLPRPRPRPFHQPRP | -0.192 |
| RRIRKRPPRLPRPRPRPSDYPRP | -0.08 |
| RRIRTRPPRLPRPRPRPMSGPRP | -0.137 |
| RRIRPRPPRLPRPRPRPPHKPRP | 0.452 |
| RRIRVRPPRLPRPRPRPIVNPRP | -0.11 |
| RRIRERPPRLPRPRPRPEINPRP | -0.2 |
| RRIRDRPPRLPRPRPRPHEQPRP | -0.0062 |
| RRIRCRPPRLPRPRPRPSDTPRP | -0.134 |
| RRIRSRPPRLPRPRPRPGRCPRP | 0.247 |
| RRIRSRPPRLPRPRPRPKFNPRP | -0.573 |
| RRIRERPPRLPRPRPRPLYHPRP | -0.419 |
| RRIRFRPPRLPRPRPRPGIWPRP | 0.125 |
| RRIRFRPPRLPRPRPRPFRDPRP | -0.276 |
| RRIRRRPPRLPRPRPRPMCLPRP | 0.0511 |
| RRIRCRPPRLPRPRPRPGSRPRP | 0.235 |
| RRIRNRPPRLPRPRPRPNDQPRP | -0.309 |
| RRIRCRPPRLPRPRPRPELMPRP | 0.23 |
| RRIRLRPPRLPRPRPRPKMVPRP | -0.146 |
| RRIRKRPPRLPRPRPRPSKPPRP | 0.0859 |
| RRIRPRPPRLPRPRPRPAPSPRP | 0.51 |
| RRIRVRPPRLPRPRPRPSRHPRP | -0.0783 |
